From US20210380675A1 (Kyowa Kirin, published 2021)
Numbering of substitutions follows the chain as printed. One block for each binder: values may come before it.

Experiments:
[1] = molecular target: T1, human IL-36α(R12), truncated (human, UniProt Q9UHA7 6-158); assay: SPR, Biacore, 1:1 Langmuir fit; heads of c3 and c4 printed swapped
T1 construct: Untagged after removal of the His-SUMO tag; also called hIL-36alpha
T1 chain: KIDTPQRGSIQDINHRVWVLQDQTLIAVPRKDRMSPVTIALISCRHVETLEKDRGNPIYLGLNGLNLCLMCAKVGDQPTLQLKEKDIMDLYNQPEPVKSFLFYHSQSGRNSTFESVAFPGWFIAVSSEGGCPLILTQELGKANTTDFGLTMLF
Method: (§1) The humanized antibodies obtained in Example 6 were tested for their binding to recombinant human or cynomolgus macaque IL36a and IL-36γ in Biacore assays. The association time was set to 60 seconds, and the final dissociation time was set to 600 seconds. Equilibrium dissociation constant KD (kd/ka) of exemplary antibodies was determined using a 1:1 Langmuir fit model (see Tables 17-18 below).

human IL-36γ, truncated [2] = molecular target: T2, human IL-36γ, truncated (human, UniProt Q9NZH8 18-169); assay: as above
T2 construct: Bought from R&D Systems (cat 6835-IL); also called human IL-36 gamma; hIL-36gamma
T2 sequence: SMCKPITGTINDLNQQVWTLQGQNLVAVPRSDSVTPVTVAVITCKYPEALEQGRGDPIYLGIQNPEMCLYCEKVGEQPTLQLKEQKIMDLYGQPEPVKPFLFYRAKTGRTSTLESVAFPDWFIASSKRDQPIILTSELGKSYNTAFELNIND
Method: as §1

[3] = molecular target: T3, cynomolgus IL-36α, truncated (cynomolgus macaque (Macaca fascicularis), UniProt Q9UHA7 14-158 (human entry), limits assumed); assay: as above
T3 construct: Untagged after removal of the His-SUMO tag; also called cynomolgus IL-36 alpha; cyIL-36alpha
T3 chain: T1 chain with I2S, D3E, T4M, R7P, G8V, T24I, M34V, A40S, V74A
Method: as §1

[4] = molecular target: T4, cynomolgus IL-36γ, truncated (cynomolgus macaque (Macaca fascicularis), UniProt Q9NZH8 18-167 (human entry), limits assumed); assay: as above
T4 construct: Untagged after removal of the His-SUMO tag; also called cynomolgus IL-36 gamma; cyIL-36gamma
T4 chain: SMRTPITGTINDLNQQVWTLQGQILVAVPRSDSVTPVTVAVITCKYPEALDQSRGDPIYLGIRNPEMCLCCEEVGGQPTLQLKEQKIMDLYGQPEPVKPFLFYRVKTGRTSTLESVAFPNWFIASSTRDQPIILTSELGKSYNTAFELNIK
Method: as §1

[5] = molecular target: T1, human IL-36α(R12), truncated; assay: SPR, Biacore, 1:1 Langmuir fit
Method: as §1

human IL-36γ, truncated [6] = molecular target: T2, human IL-36γ, truncated; assay: SPR, Biacore, 1:1 Langmuir fit
Method: as §1

[7] = molecular target: T3, cynomolgus IL-36α, truncated; assay: SPR, Biacore, 1:1 Langmuir fit
Method: as §1

[8] = molecular target: T4, cynomolgus IL-36γ, truncated; assay: SPR, Biacore, 1:1 Langmuir fit
Method: as §1

[9] = molecular target: T1, human IL-36α(R12), truncated; assay: cell-based or functional assay
[10] = molecular target: T3, cynomolgus IL-36α, truncated; assay: cell-based or functional assay
human IL-36γ, truncated [11] = molecular target: T2, human IL-36γ, truncated; assay: cell-based or functional assay
[12] = molecular target: T4, cynomolgus IL-36γ, truncated; assay: cell-based or functional assay
[13] = molecular target: T1, human IL-36α(R12), truncated; assay: SPR, Biacore T200, antibody on chip, IL-36 as analyte, 1:1 Langmuir fit
In short: (§2)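 Single-cycle kinetics: mouse/human chimeric or mouse antibodies captured (~200 RU) via anti-human or anti-mouse Fc on CM5, then increasing IL-36 concentrations injected, 300 s association, 1200 s dissociation. Alternatively ~2000 RU antibody amine-coupled, analyte 30 μL/min for 420 s, 3600 s dissociation, 25° C; double-referenced sensorgrams.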

human IL-36γ, truncated [14] = molecular target: T2, human IL-36γ, truncated; assay: as above
In short: as §2

human IL-36γ, truncated [15] = molecular target: T2, human IL-36γ, truncated; assay: cell-based or functional assay; remark: listed apart in the source
human IL-36γ, truncated [16] = molecular target: T2, human IL-36γ, truncated; assay: cell-based or functional assay; remark: listed apart in the source
[17] = molecular target: T1, human IL-36α(R12), truncated; assay: cell-based or functional assay
human IL-36γ, truncated [18] = molecular target: T2, human IL-36γ, truncated; assay: cell-based or functional assay; remark: listed apart in the source
[19] = molecular target: T1, human IL-36α(R12), truncated; assay: ELISA binding screen and HaCaT assay
[20] = molecular target: T3, cynomolgus IL-36α, truncated; assay: ELISA binding screen and HaCaT assay
[21] = molecular target: T4, cynomolgus IL-36γ, truncated; assay: ELISA binding screen and HaCaT assay

koff [1]: 0.000362 s⁻¹
kon [1]: 274000 M⁻¹ s⁻¹
koff (human IL-36γ, truncated [2]): 0.00034 s⁻¹
kon (human IL-36γ, truncated [2]): 388000 M⁻¹ s⁻¹
koff [3]: 0.000338 s⁻¹
kon [3]: 465000 M⁻¹ s⁻¹
koff [4]: 0.000427 s⁻¹
kon [4]: 493000 M⁻¹ s⁻¹
Kd [5]: 1.32 nM
Kd (human IL-36γ, truncated [6]): 0.877 nM
Kd [7]: 0.727 nM
Kd [8]: 0.865 nM
IC50 of IL-8 secretion, HaCaT, 10 nM human IL-36α, FIG. 1B [9]: 6.49 nM
IC50 of IL-8 secretion, HaCaT, 10 nM cynomolgus IL-36α, FIG. 2A [10]: 5.3 nM
IC50 of IL-8 secretion, HaCaT, 10 nM human IL-36γ, FIG. 1E (human IL-36γ, truncated [11]): 7.39 nM
IC50 of IL-8 secretion, HaCaT, 10 nM cynomolgus IL-36γ, FIG. 2C [12]: 15.6 nM
Kd [13]: 2.53 nM
koff [13]: 0.000309 s⁻¹
kon [13]: 122000 M⁻¹ s⁻¹
Kd (human IL-36γ, truncated [14]): 3.81 nM
koff (human IL-36γ, truncated [14]): 0.00032 s⁻¹
kon (human IL-36γ, truncated [14]): 84000 M⁻¹ s⁻¹
IC50 of IL-8 secretion, primary human monocytes, 6 nM human IL-36γ, FIG. 5C (human IL-36γ, truncated [15]): 13.2 nM
IC50 (read off the curve) (human IL-36γ, truncated [16]): ~8 nM
IC50 of IL-8 secretion, primary human keratinocytes, 8 nM human IL-36α, FIG. 4B [17]: 13.4 nM
IC50 of IL-8 secretion, primary human keratinocytes, 8.4 nM human IL-36γ, FIG. 4D (human IL-36γ, truncated [18]): 13.3 nM
B1: 144D464A (antibody, V domains shown)
VH: EVQLQQSGAELVKPGASVRLSCTASGFNIKDTYIHWVKQRPEQGLEWIGRIDPAIGTTRYDPKFQGKATITTDTSSDTVHLQFSSLTSEDTAVYYCARLHYFGNNFFFDYWGQGTTLTVSS
VL: QAVVTQESALTTSPGEAVTLTCRSSSGAVTTSNYANWVQEKPDHLFAGLIGGTNDRAPGVPARFSGSLIGDKAALTITGAQTEDEAIYFCALWFSNHWVFGGGTKLTVL
notes: Mouse monoclonal from hybridoma; mouse IgG heavy and lambda light chain; also called mouse antibody 144D464A

IC50 of IL-8 secretion, HaCaT, 10 nM cynomolgus IL-36α, FIG. 2B [10]: 63.2 nM
IC50 of IL-8 secretion, HaCaT, 10 nM human IL-36γ, FIG. 1F (human IL-36γ, truncated [11]): 11.9 nM
IC50 of IL-8 secretion, HaCaT, 10 nM cynomolgus IL-36γ, FIG. 2D [12]: 17.1 nM
Kd (human IL-36γ, truncated [14]): 1000 nM
koff (human IL-36γ, truncated [14]): 0.00208 s⁻¹
kon (human IL-36γ, truncated [14]): 2070 M⁻¹ s⁻¹
IC50 of IL-8 secretion, primary human monocytes, 6 nM human IL-36γ, FIG. 5C (human IL-36γ, truncated [15]): 15.7 nM
IC50 of IL-8 secretion, primary human monocytes, 50 nM human IL-36γ, FIG. 5D (human IL-36γ, truncated [15]): 40 nM
binding result [19]: binds
B2: 144L472A (antibody, V domains shown)
VH: EVQLQQSGAELVKPGASVKLSCTVSGFNIKDTYMYWVKQRPEQGLEWIGRIDPANGYAKYDPKFQGKATLTADTSSNTAYLQLSSLTSEDTAVYFCARFHWYDSAFYFDFWGQGTTLTVSS
VL: B1 VL with A17T, A47T, D55N, A91G, F94Y
notes: Mouse monoclonal from hybridoma; mouse IgG heavy and lambda light chain

IC50 of IL-8 secretion, HaCaT, 10 nM human IL-36α, FIG. 1A [9]: 49.5 nM
IC50 of IL-8 secretion, HaCaT, 10 nM human IL-36γ, FIG. 1D (human IL-36γ, truncated [11]): 5.12 nM
Kd [13]: 18 nM
koff [13]: 0.00184 s⁻¹
kon [13]: 102000 M⁻¹ s⁻¹
Kd (human IL-36γ, truncated [14]): 1.08 nM
koff (human IL-36γ, truncated [14]): 0.000676 s⁻¹
kon (human IL-36γ, truncated [14]): 625000 M⁻¹ s⁻¹
binding result [20]: binds
binding result [21]: binds
B3: 144D666C (antibody, V domains shown)
VH: EVQLQQSGAELVKPGASVKLTCTASGFNIKDTYIYWVKQRPAQGLEWIGRIDPANAYTKFDPKFQGKATLTADTSSNTAYLQLSSLTSEDTAVYYCTRFHWYGSSFFFDYWGQGTTLTVSS
VL: B1 VL with A17T, S26T, A47T, N54D, D55N, A57P, F94Y, H97L
notes: as for B2
